{"source": "patent US20250213730A1", "about": "(Takeda / Millennium, published 2025)", "key": {"[1]": {"molecular_target": "T1, Recombinant Human TfR Protein (R&D Systems; Catalog #2474-TR) (human, UniProt P02786 89-760)", "T1 construct": "Bought reagent, injected as analyte in SPR; also called hTfR1; hTFR1", "T1 sequence (P02786 89-760 limits assumed)": "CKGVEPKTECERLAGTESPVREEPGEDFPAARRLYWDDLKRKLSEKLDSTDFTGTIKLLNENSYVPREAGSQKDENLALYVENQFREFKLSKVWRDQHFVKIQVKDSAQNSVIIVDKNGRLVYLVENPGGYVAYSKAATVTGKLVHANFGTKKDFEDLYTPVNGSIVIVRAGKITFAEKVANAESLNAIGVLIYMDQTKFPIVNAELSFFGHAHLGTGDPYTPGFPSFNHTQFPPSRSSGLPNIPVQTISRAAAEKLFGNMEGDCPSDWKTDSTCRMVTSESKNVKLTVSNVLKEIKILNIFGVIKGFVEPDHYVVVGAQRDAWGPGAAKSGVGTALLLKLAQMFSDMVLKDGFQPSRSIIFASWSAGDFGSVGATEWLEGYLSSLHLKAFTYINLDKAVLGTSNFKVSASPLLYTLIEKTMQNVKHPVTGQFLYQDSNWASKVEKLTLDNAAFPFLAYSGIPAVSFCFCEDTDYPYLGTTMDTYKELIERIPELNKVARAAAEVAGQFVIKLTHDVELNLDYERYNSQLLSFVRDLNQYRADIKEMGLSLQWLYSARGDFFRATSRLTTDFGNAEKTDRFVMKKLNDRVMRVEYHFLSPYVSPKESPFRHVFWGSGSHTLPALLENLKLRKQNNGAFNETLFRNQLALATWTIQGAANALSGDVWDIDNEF", "assay": "SPR (Biacore 8K+), I2S immobilized on CM5 by amine coupling, TfR as analyte", "method": "(§1) Surface Plasmon Resonance (SPR) assays: Binding affinity between human/mouse receptor with Iduronate 2 Sulfatase or idursulfase (I2S) tagged with an anti-transferrin receptor binding single domain antibody (VHH) was determined using the Biacore 8K+ instrument (Cytiva; Danaher Corporation). In this experiment, samples were immobilized on a series S sensor chip CM5 (Catalog #29104988) via amine coupling. Samples immobilized (ligand) were i) I2S-VHH ii) VHH-I2S iii) I2S as negative control iv) Holo transferrin peptide as positive control. 1 ug/mL of ligand, reconstituted in Acetate pH 4.0, was immobilized on individual flow cells for 420 s, yielding a final immobilization level of approximately 350 Response Units. Recombinant Human TfR Protein (R&D Systems; Catalog #2474-TR) and Mouse TfR1 (TR06671428-001; Takeda) were injected on this surface (as analyte) with a concentration range of 5, 2.5, 1.25, 0.625 & 0.156 ug/mL. Analyte series was injected for 120 s, followed by a dissociation phase for a duration that yields at least 10% dissociation of analyte. Resulting sensograms were analyzed using the 1:1 Binding Model."}, "[2]": {"molecular_target": "T2, Mouse TfR1 (TR06671428-001; Takeda) (mouse, UniProt Q62351 89-763)", "T2 construct": "Injected as analyte in SPR; also called mTFR1; mouse transferrin receptor 1", "T2 sequence (Q62351 89-763 limits assumed)": "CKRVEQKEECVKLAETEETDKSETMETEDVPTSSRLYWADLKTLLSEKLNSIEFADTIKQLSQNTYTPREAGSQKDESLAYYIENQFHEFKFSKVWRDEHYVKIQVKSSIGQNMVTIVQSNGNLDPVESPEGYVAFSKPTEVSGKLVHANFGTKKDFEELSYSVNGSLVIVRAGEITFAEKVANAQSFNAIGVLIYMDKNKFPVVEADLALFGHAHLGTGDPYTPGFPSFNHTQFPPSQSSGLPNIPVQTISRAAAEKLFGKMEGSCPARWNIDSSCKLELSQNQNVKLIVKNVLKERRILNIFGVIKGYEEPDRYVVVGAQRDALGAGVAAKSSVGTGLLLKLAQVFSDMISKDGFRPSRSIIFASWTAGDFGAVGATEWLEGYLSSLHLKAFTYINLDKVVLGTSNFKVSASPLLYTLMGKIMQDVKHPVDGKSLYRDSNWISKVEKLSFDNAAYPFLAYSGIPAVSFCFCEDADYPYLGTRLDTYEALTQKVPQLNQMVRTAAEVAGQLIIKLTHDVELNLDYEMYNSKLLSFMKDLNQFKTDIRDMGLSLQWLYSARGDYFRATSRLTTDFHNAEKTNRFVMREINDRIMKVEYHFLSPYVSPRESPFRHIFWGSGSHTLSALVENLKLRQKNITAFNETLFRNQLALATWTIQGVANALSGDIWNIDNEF", "assay": "SPR (Biacore 8K+), I2S immobilized on CM5 by amine coupling, TfR1 as analyte", "method": "as §1"}}, "data": [{"binder": "I2S control (untagged human iduronate-2-sulfatase, purified protein) (enzyme, Negative control in the SPR assay; also called idursulfase; IDS) SETQANSTTDALNVLLIIVDDLRPSLGCYGDKLVRSPNIDQLASHSLLFQNAFAQQAVCAPSRVSFLTGRRPDTTRLYDFNSYWRVHAGNFSTIPQYFKENGYVTMSVGKVFHPGISSNHTDDSPYSWSFPPYHPSSEKYENTKTCRGPDGELHANLLCPVDVLDVPEGTLPDKQSTEQAIQLLEKMKTSASPFFLAVGYHKPHIPFRYPKEFQKLYPLENITLAPDPEVPDGLPPVAYNPWMDIRQREDVQALNISVPYGPIPVDFQRKIRQSYFASVSYLDTQVGRLLSALDDLQLANSTIIAFTSDHGWALGEHGEWAKYSNFDVATHVPLIFYVPGRTASLPEAGEKLFPYLDPFDSASQLMEPGRQSMDLVELVSLFPTLAGLAGLQVPPRCPVPSFHVELCREGKNLLKHFRFRDLEEDPYLPGNPRELIAYSQYPRPSDIPQWNSDKPSLKDIKIMGYSIRTIDYRYTVWVGFNPDEFLANFSDIHAGELYFVDSDPLQDHNMYNDSQGGDLFQLLMP", "values": [{"measurement": "binding result", "setting": "[1]", "value": "no binding (tested: analyte 0.156-5 ug/mL)"}, {"measurement": "binding result", "setting": "[2]", "value": "no binding (tested: analyte 0.156-5 ug/mL)"}]}]}
